Reference: patent US20140322220A1

What was measured:
[1] = biological target: murine FGFR2 on murine cancer cell lines (murine) (UniProt P21803); test: FACS, 5 ug/ml, 4T1 cells
[2] = biological target: human FGFR2 on human cancer cell lines (human) (UniProt P21802); test: FACS, 5 ug/ml, HEC1b cells
[3] = biological target: human FGFR2 on human cancer cell lines (human) (UniProt P21802); test: FACS, 5 ug/ml, SNU16 cells
[4] = biological target: human FGFR2 on human cancer cell lines (human) (UniProt P21802); test: FACS, 5 ug/ml, MFE280 cells
[5] = biological target: human FGFR2 on human cancer cell lines (human) (UniProt P21802); test: FACS, 5 ug/ml, KATOIII cells
[6] = biological target: human FGFR2 on human cancer cell lines (human) (UniProt P21802); test: FACS, 5 ug/ml, NCI-N87 cells
[7] = biological target: murine FGFR2 on murine cancer cell lines (murine) (UniProt P21803); test: FACS titration 0.1-100 nM, 4T1 cells
[8] = biological target: human FGFR2 on human cancer cell lines (human) (UniProt P21802); test: FACS titration 0.1-100 nM, SNU16 cells
[9] = biological target: human FGFR2 on human cancer cell lines (human) (UniProt P21802); test: FACS titration 0.1-100 nM, MFM223 cells
[10] = biological target: hFGFR2β-Fc (IIIc) (human) (UniProt P21802); test: ELISA, 1 ug/ml Fab on coated antigen; grade of signal to background (+ 2-3, ++ 3-5, +++ >5)
[11] = biological target: mFGFR2β-Fc (IIIc) (murine) (UniProt P21803); test: as above

Geo Mean minus Geo Mean of secondary antibody alone (FACS) [1]	Geo Mean minus Geo Mean of secondary antibody alone (FACS) [2]	Geo Mean minus Geo Mean of secondary antibody alone (FACS) [3]	Geo Mean minus Geo Mean of secondary antibody alone (FACS) [4]	Geo Mean minus Geo Mean of secondary antibody alone (FACS) [5]	Geo Mean minus Geo Mean of secondary antibody alone (FACS) [6]	EC50 [7]	EC50 [8]	EC50 [9]	ELISA signal to background ratio [10]	ELISA signal to background ratio [11]	Binder
100 to 1000 geomean	100 to 1000 geomean	100 to 1000 geomean	10 to 100 geomean	> 10000 geomean	10 to 100 geomean	0.0208 µM	0.0895 µM	0.0169 µM	–	–	M021-H02-hIgG1 (antibody, V domains shown) VH: EVQLLESGGGLVQPGGSLRLSCAASGFTFSNYGIHWVRQAPGKGLEWVAVISYDGSNKYYADSVKGRFTISRDNSKNTLYLQMNSLRAEDTAMYYCARDSSSAEDYWGQGTLVTVSS VL: QSVLTQPPSASGTPGQRVTISCSGSSSNTGSNTVNWYQQLPGTAPKLLIYRNNQRPSGVPDRFSGSKSGTSASLAISGLRSEDEADYYCETWDSNTRGVVFGGGTKLTVL
–	–	–	–	–	–	–	–	–	> 5	> 5	M021-H02 (soluble Fab) (Fab, V domains shown) VH: EVQLLESGGGLVQPGGSLRLSCAASGFTFSNYGIHWVRQAPGKGLEWVAVISYDGSNKYYADSVKGRFTISRDNSKNTLYLQMNSLRAEDTAMYYCARDSSSAEDYWGQGTLVTVSS VL: QSVLTQPPSASGTPGQRVTISCSGSSSNTGSNTVNWYQQLPGTAPKLLIYRNNQRPSGVPDRFSGSKSGTSASLAISGLRSEDEADYYCETWDSNTRGVVFGGGTKLTVL
–	–	–	–	–	–	–	–	–	> 5	> 5	M048-D01 (soluble Fab) (Fab, V domains shown) VH: EVQLLESGGGLVQPGGSLRLSCAASGFTFSSYAMSWVRQAPGKGLEWVSAISGSGTSTYYADSVKGRFTISRDNSKNTLYLQMNSLRAEDTAVYYCARVRYNWNHGDWFDPWGQGTLVTVSS VL: QSVLTQPPSASGTPGQRVTISCSGSSSNIGNNYVSWYQQLPGTAPKLLIYENYNRPAGVPDRFSGSKSGTSASLAISGLRSEDEADYYCSSWDDSLNYWVFGGGTKLTVL
